Experiments:
Test in all cases: flow cytometry, alanine-scan library in HEK-293T
hsGLUT4 P66A = target: T1, hsGLUT4 P66A (human, UniProt P14672 1-509)
T1 sequence: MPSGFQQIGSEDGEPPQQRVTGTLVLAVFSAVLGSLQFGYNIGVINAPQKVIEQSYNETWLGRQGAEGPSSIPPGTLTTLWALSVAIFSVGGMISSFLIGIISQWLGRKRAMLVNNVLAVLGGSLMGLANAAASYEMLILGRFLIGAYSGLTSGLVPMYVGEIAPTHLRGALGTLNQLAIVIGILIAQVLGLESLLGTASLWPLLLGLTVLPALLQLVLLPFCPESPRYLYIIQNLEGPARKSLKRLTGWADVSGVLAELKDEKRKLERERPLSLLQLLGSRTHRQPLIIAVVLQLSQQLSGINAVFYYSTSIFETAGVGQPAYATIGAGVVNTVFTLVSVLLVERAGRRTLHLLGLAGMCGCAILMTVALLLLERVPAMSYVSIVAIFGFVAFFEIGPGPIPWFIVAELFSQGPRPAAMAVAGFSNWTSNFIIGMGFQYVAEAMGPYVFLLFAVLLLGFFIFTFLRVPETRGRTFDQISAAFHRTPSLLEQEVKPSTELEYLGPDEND
Protocol: (§1) Because of the state-dependence of the isolated MAbs, we next wished to understand the mechanism by which each MAb could recognize GLUT4 in its different conformations. The residues required for binding of each MAb were determined using shotgun mutagenesis comprehensive alanine scanning (Davidson E & Doranz B J (2014) A High-Throughput Shotgun Mutagenesis Approach to Mapping B-cell Antibody Epitopes. Immunology, which is hereby incorporated by reference in its entirety). All residues of hsGLUT4 were individually mutated to alanine, with existing alanines changed to serines. Mutations were obtained for 508 of the 509 residues of GLUT4 (excluding the initiating methionine). The entire mutation library was transfected into human HEK-293T cells in a 384-well array format (one clone per well) and assessed for immunoreactivity using high-throughput flow cytometry.
(§2) HEK-293T cells were transfected by CaPO₄ with plasmids in 6-well culture plates (Falcon) at 750,000 cells/well. At 48 hours post transfection, cells were stained with anti-V5 and anti-GLUT4 MAbs (purified scFv, 2 μg/ml) followed by biotinylated goat anti-mouse or human antibody (1:500) and streptavidin-PerCP (1:500). Fluorescence was detected using an Intellicyt high-throughput flow cytometer (HTFC; Intellicyt, Albuquerque, N. Mex.). For cell permeabilization, cells were treated with saponin at 0.1% in PBS for 20 minutes. To discriminate intact (live) and permeabilized (dead) cells without the use of detergent, propidium iodide (PI) was added to HEK-293T cells at 1 ug/ml just prior to flow cytometry. Where indicated, cytochalasin B (Sigma) was used at a final concentration of 10 uM and phloretin (Sigma) was used at a final concentration of 100 uM, each added in 10% NGS for 30 minutes prior to antibody staining as well as included with the primary antibody.

hsGLUT4 G348A = target: T2, hsGLUT4 G348A (human, UniProt P14672 1-509)
T2 sequence: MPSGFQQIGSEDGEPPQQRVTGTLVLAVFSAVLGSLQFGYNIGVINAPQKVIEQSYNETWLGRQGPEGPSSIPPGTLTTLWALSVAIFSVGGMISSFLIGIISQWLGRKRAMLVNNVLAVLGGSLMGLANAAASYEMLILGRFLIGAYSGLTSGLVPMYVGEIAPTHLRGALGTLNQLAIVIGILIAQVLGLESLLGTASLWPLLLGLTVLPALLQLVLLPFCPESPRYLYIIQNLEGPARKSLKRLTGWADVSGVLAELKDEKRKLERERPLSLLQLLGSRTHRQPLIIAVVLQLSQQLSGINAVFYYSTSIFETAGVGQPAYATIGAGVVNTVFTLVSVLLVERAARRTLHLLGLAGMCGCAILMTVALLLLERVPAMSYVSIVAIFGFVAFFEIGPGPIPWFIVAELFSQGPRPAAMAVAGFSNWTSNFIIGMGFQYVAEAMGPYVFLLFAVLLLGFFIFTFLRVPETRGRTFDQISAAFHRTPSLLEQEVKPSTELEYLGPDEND
Protocol: as §1, §2

hsGLUT4 N304A = target: T3, hsGLUT4 N304A (human, UniProt P14672 1-509)
T3 sequence: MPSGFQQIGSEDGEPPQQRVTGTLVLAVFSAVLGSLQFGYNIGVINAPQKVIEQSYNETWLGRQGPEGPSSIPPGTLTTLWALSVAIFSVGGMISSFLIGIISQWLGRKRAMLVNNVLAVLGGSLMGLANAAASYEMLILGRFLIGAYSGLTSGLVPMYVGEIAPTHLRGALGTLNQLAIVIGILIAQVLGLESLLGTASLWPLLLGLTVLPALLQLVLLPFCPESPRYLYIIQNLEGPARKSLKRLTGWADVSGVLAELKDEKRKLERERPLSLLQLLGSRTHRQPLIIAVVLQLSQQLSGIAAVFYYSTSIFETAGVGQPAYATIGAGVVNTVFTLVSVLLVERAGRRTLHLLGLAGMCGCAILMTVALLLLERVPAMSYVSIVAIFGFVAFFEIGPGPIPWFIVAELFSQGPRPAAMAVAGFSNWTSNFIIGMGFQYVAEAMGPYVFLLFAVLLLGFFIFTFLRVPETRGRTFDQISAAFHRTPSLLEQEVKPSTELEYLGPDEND
Protocol: as §1, §2

hsGLUT4 F307A = target: T4, hsGLUT4 F307A (human, UniProt P14672 1-509)
T4 sequence: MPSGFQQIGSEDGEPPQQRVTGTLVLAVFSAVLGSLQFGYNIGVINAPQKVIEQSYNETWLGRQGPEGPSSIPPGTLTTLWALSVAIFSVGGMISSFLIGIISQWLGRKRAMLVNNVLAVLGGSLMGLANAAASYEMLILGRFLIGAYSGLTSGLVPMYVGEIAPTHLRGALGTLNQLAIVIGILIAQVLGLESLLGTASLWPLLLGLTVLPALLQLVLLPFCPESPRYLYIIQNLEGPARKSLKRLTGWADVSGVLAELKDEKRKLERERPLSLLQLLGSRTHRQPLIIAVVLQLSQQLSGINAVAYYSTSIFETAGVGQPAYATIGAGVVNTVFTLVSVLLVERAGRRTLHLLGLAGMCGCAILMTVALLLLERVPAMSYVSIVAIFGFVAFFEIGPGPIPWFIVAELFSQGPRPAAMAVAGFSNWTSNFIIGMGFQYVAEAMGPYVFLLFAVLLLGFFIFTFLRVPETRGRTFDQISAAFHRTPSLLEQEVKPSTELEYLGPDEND
Protocol: as §1, §2

1F8 (antibody)
% of binding to wild type GLUT4 (hsGLUT4 P66A): 78% | % of binding to wild type GLUT4 (hsGLUT4 G348A): 109% | % of binding to wild type GLUT4 (hsGLUT4 N304A): 79% | % of binding to wild type GLUT4 (hsGLUT4 F307A): 84%

B1: AB101 (scFv)
scFv: ALTQPSSVSANPGETVKITCSGSSNSYGWYQQKSPGSAPVTVIYYNDKRPSDIPSRFSGSKSDSTHTLTITGVRAEDEAVYFCGSYDSTYVGIFGAGTTLTVLGQSSRSSGGGGSSGGGGSAVTLDESGGGLQTPGGTLSLVCKASGFTFSSNAMGWVRQAPGKGLEWVAGISSDGRYTKYGSAVKGRATISRDNGQSTVRLQLNNLRAEDTGTYFCAKAFGNNYRRIYAGQIDAWGHGTEVIVSS
notes: Chicken-derived clone used as a control; the four lead clones were tested as scFv-human IgG1 Fc; also called MAb AB101
% of binding to wild type GLUT4 (hsGLUT4 P66A): 91% | % of binding to wild type GLUT4 (hsGLUT4 G348A): 101% | % of binding to wild type GLUT4 (hsGLUT4 N304A): 145% | % of binding to wild type GLUT4 (hsGLUT4 F307A): 82%

B2: AB105 (Fc fusion)
scFv: ALTQPSSVSANPGETVEITCSGDSSYYGWYQQKSPGSAPVTVIYANTNRPSDIPSRFSGSASGSTATLTITGVQAEDEAVYYCGSADSTYAGIFGAGTTLTVLGQSSRSSGGGGSSGGGGSAVTLDESGGGLQTPGGALSLICKASGFTFSSYTMNWVRQAPGKGLEWVGVISNSGRTTNYGAAVQGRATISRDNGQSTVRLQLNNLRAEDTGTYYCAKSSASASCAWWAGRSYPCSANRIDAWGHGTEVIVSS
notes: Bivalent scFv-Fc; also called MAb AB105; not shown: Fc fragment of human IgG1, cloned in frame with the scFv
% of binding to wild type GLUT4 (hsGLUT4 N304A): 11%

B3: AB111 (Fc fusion)
scFv: ALTQPSSVSANPGETVKITCSGSGSWYGWFQQKSPGSAPVTVIYSNDKRPSDIPSRFSGSKSGSTSTLTITGVQVEDEAVYYCGNWDIFGAGTTLTVLGQSSRSSGGGGSSGGGGSAVTLDESGGGLQTPGGALSLVCKASGFTFSSHGMGWVRQAPGKGLEWVASISTGRYTFYAPAVKGRATISRDNGQSTVRLQLNNLRAEDTATYYCTKCAGLNGCGGGEIDAWGHGTEVIVSS
notes: Bivalent scFv-Fc; also called MAb AB111; not shown: Fc fragment of human IgG1, cloned in frame with the scFv
% of binding to wild type GLUT4 (hsGLUT4 P66A): 90% | % of binding to wild type GLUT4 (hsGLUT4 G348A): 161% | % of binding to wild type GLUT4 (hsGLUT4 N304A): 125% | % of binding to wild type GLUT4 (hsGLUT4 F307A): 108%

B4: AB108 (Fc fusion)
scFv: ALTQPSSVSANLGGTVKITCSGSSGSYGWYQQKAPGSAPVTLIYRNDKRPSDIPSRFSGSESGSTGTLTITGVQAEDEAVYFCGGYDSSAGYAAFGAGTTLTVLGQSSRSSGGGGSSGGGGSAVTLDESGGGLQTPGGALSLVCKASGFTFSSHGMGWVRQAPGKGLEWVGSISTGRYTFYAPAVKGRATISRDNGQSTLRLQLNNLRAEDTGTYYCTKCAGLNGCGGGEIDAWGHGTEVIVSS
notes: Bivalent scFv-Fc; also called MAb AB108; not shown: Fc fragment of human IgG1, cloned in frame with the scFv
% of binding to wild type GLUT4 (hsGLUT4 P66A): 11% | % of binding to wild type GLUT4 (hsGLUT4 G348A): 94% | % of binding to wild type GLUT4 (hsGLUT4 N304A): 72% | % of binding to wild type GLUT4 (hsGLUT4 F307A): 74%
